Measured values: patent publication US10323078B2, “Isolated peptides and fragments thereof from fibrinogen for use as drugs, particularly in skin inflammatory diseases” (Universite Paris Descartes, priority 2015, dated 2019)

Key:
[1] = tested on: Pfg; assay: Western ligand blot with biotinylated Pfg; assay type: binding, Propionibacterium acnes; settings: 10 μg per lane, 10% SDS-PAGE; biotinylated Pfg 0.1 μg/ml
Protocol: (§1) FIG. 5: Binding of P. acnes surface proteins to fibrinogen. (A) Various quantities of human fibrinogen (hFg) and bovine fibrinogen (bFg) were immobilized onto a 96-well polystyrene plate at 4° C. for 18 h and incubated with biotinylated Pfg at 0.1 μg/ml for 2 h at 23° C. Bovine serum albumin (BSA) was used as negative control. Bound material was detected by using the HRP-streptavidin conjugate. Peroxidase activity was measured by using the ABTS substrate at 405 nm. Proteins (10 μg per lane) were separated by 10% SDS-PAGE and detected by (B) Commassie blue staining, and transferred to nitrocellulose membrane and incubated with (C) HRP-streptavidine alone, and (D) biotinylated Pfg (0.1 μg/ml). Lanes 1: molecular weight standards. Lane 2: BSA. Lane 3: hFg. Lane 4: bFg.
FIG. 8: Cloning of Bß human fibrinogen fragments and binding with Pfg. (A) Cloning and expression of recombinant human Bß fibrinogen fragments Fg1, Fg2, Fg3 and Fg4. Fibrinogen fragments were obtained by RT-PCR and expression plasmids were constructed as described in Materials and Methods. (B) GST-fused proteins were expressed in E. coli, fractionated by 12.5% SDS-PAGE, and detected by Coomassie blue staining (B), and incubated with biotinylated Pfg (0.1 μg/ml) as described in Materials and Methods (C).
To characterize the interaction between P. acnes and ligands, we used biotinylated molecules in quantitative and qualitative assays. In a first set of assays, ECM ligands (fibrinogen, collagens I, IV, VI and VIII) were used as labelled proteins with biotin. In a second set of assays, P. acnes surface proteins (total extract and purified Pfg) were biotinylated. For quantitative analysis, unlabeled protein were diluted into 50 mM carbonate-bicarbonate, pH 9.6 buffer to yield a protein concentration ranging from 0.01 to 50 μg/ml, and then immobilized to 96-well polystyrene plates at 4° C. overnight. The wells were rinsed three times with 0.2 ml of PBS containing 0.05% Tween-20 (PBS-Tween). Biotinylated proteins (0.01 to 16 μg/ml in PBS-Tween) were added to the wells and incubated at room temperature for 1 h. The wells were rinsed three times with 0.2 ml of PBS-Tween. Peroxidase conjugated to streptavidin (0.5 μg/ml in PBS-Tween) was added and incubated for 30 min at room temperature. After washing, bound peroxidase was detected using the chromogenic peroxidase substrate ABTS. For qualitative analysis, unlabelled protein (10-75 μg per lane) were separated by SDS-PAGE and then transferred to nitrocellulose membranes (0.45 μm pore size), as described previously (Towbin, 1979). Membranes were then saturated overnight at 4° C. in PBS containing 5% BSA, 0.05% Tween-20 (PBT buffer). Binding activity was detected by incubating the membranes with 20 ml of PBT containing biotinylated proteins (0.1 μg/ml) for 2 h at room temperature followed by three washes with PBT. Bound biotinylated proteins were detected by incubating the membrane with peroxidase conjugated to streptavidin (0.5 μg/ml in PBT) for 1 h at room temperature. After washing, bound peroxidase activity was detected using 3,3′-diaminobenzidine in the presence of CoCl2 and H2O2 (Harlow and Lane, 1988).
Since it was shown that Pfg is recognized by fibrinogen, this ECM ligand was used to analyze the nature of this interaction. First it was analyzed the ability of fibrinogen to be recognized by purified Pfg (FIG. 5). Human and bovine Fg (hFg, bFg) were immobilized to polysterene plate and the binding activity of biotinylated Pfg was measured. […] It has been shown that fibrinogen is a glycoprotein containing both N- and O-linked glycans (Debeire 1985; Reid Townsend 1982; L'Hôte 1996). […] In parallel, deglycosylation was assessed by visualization of a shift in the mobility after electrophoresis separation and Coomassie blue staining (FIG. 6A, lanes 3 and 5) and also by using the RCA-I plant lectin able to recognize ß-linked galactosyl residues in terminal position (FIG. 6C) (Green, 1987). […]

[2] = tested on: P. acnes 6919 strain; assay: Adhesion assay, biotinylated P. acnes binding to HaCaT keratinocytes; assay type: cell-based, Propionibacterium acnes; settings: P. acnes 6919 pre-treated with whole fibrinogen 0.01 to 0.5 mM, 1 h at 37° C.
Protocol: FIG. 12: Dose-dependent inhibition of P. acnes binding to keratinocytes. Biotinylated P. acnes 6919 strain at concentrations adjusted to 0.1 of absorbance at 600 nm was pre-treated with whole human (dark gray bar) and bovine (light gray bar) fibrinogen at the concentrations ranging from 0.01 to 0.5 mM and incubated 1 h at 37° C. with the human HaCaT keratinocyte cell line. After removal of unbound bacteria, adhesion activity was detected at 410 nm. Data are means±S.D. of three separate experiments. Statistical significance is indicated by * (P<0.05), ** (P<0.01), *** (P<0.001), and **** (P<0.0001), respectively.
The bacterial suspension was adjusted at 600 nm to the desired concentration, pretreated with peptides Fg1 and Fg2 at the final concentration ranging from 0.87 to 7 μM for 1 h at 37° C. and deposited on the previously saturated cells with a solution of PBS SVF 2% for 2 h. After incubation for 1 h at 37° C., unbound bacteria are removed by 3 washes with PBS and fixed bacteria are detected by a streptavidin-peroxidase solution of 0.5 μg/ml for 30 min.
Whole P. acnes bacteria are labelled by biotinylation, pre-treated or not with the peptides and contacted with the various cell lines. After removal of the unfixed bacteria, the adhesion activity was measured spectrophotometrically by using the streptavidin-peroxidase conjugate and a chromogenic substrate. […]

[3] = tested on: Pfg; assay: Binding of biotinylated Pfg to immobilized fibrinogen (polystyrene plate); design: species or system Propionibacterium acnes; settings: various quantities of fibrinogen immobilized; biotinylated Pfg 0.1 μg/ml, 2 h at 23° C.
Protocol: as §1, with “Lane 3: hFg. Lane 4: bFg.” left out
To characterize the interaction between P. acnes and ligands, we used biotinylated molecules in quantitative and qualitative assays. […] For quantitative analysis, unlabeled protein were diluted into 50 mM carbonate-bicarbonate, pH 9.6 buffer to yield a protein concentration ranging from 0.01 to 50 μg/ml, and then immobilized to 96-well polystyrene plates at 4° C. overnight. […] After washing, bound peroxidase was detected using the chromogenic peroxidase substrate ABTS. […] Binding activity was detected by incubating the membranes with 20 ml of PBT containing biotinylated proteins (0.1 μg/ml) for 2 h at room temperature followed by three washes with PBT. […]

B1: bovine fibrinogen: purified commercial bovine fibrinogen (Sigma) (protein)
chain 1: EDGSDPPSGDFLTEGGGVRGPRLVERQQSACKETGWPFCSDEDWNTKCPSGCRMKGLIDEVDQDFTSRINKLRDSLFNYQKNSKDSNTLTKNIVELMRGDFAKANNNDNTFKQISEDLRSRIEILRRKVIEQVQRIKVLQKNVRDQLVDMKRLEVDIDIKIRSCKGSCSRALEHKVDLEDYKNQQKQLEQVIAINLLPSRDIQYLPLIKMSTITGPVPREFKSQLQEAPLEWKALLEMQQTKMVLETFGGDGHARGDSVSQGTGLAPGSPRKPGTSSIGNVNPGSYGPGSSGTWNPGRPEPGSAGTWNPGRPEPGSAGTWNPGRPEPGSAGTWNPGRPEPGSAGTWNPGRPEPGSAGTWNTGSSGSSSFRPDSSGHGNIRPSSPDWGTFREEGSVSSGTKQEFHTGKLVTTKGDKELLIDNEKVTSGHTTTTRRSCSKVITKTVTNADGRTETTKEVVKSEDGSDCGDADFDWHHTFPSRGNLDDFFHRDKDDFFTRSSHEFDGRTGLAPEFAALGESGSSSSKTSTHSKQFVSSSTTVNRGGSAIESKHFKMEDEAESLEDLGFKGAHGTQKGHTKARPARGIHTSPLGEPSLTP
chain 2: QFPTDYDEGQDDRPKVGLGARGHRPYDKKKEEAPSLRPVPPPISGGGYRARPATATVGQKKVERKPPDADGCLHADPDLGVLCPTGCKLQDTLVRQERPIRKSIEDLRNTVDSVSRTSSSTFQYITLLKNMWKGRQNQVQDNENVVNEYSSHLEKHQLYIDETVKNNIPTKLRVLRSILENLRSKIQKLESDVSTQMEYCRTPCTVTCNIPVVSGKECEKIIRNEGETSEMYLIQPEDSSKPYRVYCDMKTEKGGWTVIQNRQDGSVDFGRKWDPYKQGFGNIATNAEGKKYCGVPGEYWLGNDRISQLTNMGPTKLLIEMEDWKGDKVTALYEGFTVQNEANKYQLSVSKYKGTAGNALIEGASQLVGENRTMTIHNSMFFSTYDRDNDGWKTTDPRKQCSKEDGGGWWYNRCHAANPNGRYYWGGAYTWDMAKHGTDDGVVWMNWQGSWYSMKKMSMKIRPYFPEQ
chain 3: YVATRDNCCILDERFGSYCPTTCGIADFLNNYQTSVDKDLRTLEGILYQVENKTSEARELVKAIQISYNPDQPSKPNNIESATKNSKSMMEEIMKYETLISTHESTIRFLQEVYNSNSQKIVNLRDKVVQLEANCQEPCQDTVKIHDVTGRDCQDVANKGAKESGLYFIRPLKAKQFLVYCEIDGSGNGWTVFQKRLDGSLDFKKNWIQYKEGFGHLSPTGTGNTEFWLGNEKIHLISTQSSIPYVLRIQLEDWNGRTSTADYASFKVTGENDKYRLTYAYFIGGDAGDAFDGYDFGDDSSDKFFTSHNGMQFSTWDSDNDKYDGNCAEQVGIGWWMNKCHAGHLNGVYYQGGTYSKTSTPNGYDNGIIWATWKSRWYSMKKTTMKIIPLNRLAIGEGQQHQLGGAKQVGVEHHVEIEYD
Recognition by biotinylated Pfg after electrophoretic separation of fibrinogen [1]: recognized by Pfg | Inhibition of adhesion of P. acnes to keratinocytes [2]: able to inhibit the adhesion | Binding of biotinylated Pfg to immobilized fibrinogen [3]: dose-dependent
